Reference: the DeepSol protein solubility set

Experiment: soluble on expression in E. coli; label from the status in PepcDB or PDB records

Row | Sequence | soluble on expression in E. coli
1 | MSSQKVFGITGPVSTVGATAAENKLNDSLIQELKKEGSFETEQETANRVQVLKILQELAQRFVYEVSKKKNMSDGMARDAGGKIFTYGSYRLGVHGPGSDIDTLVVVPKHVTREDFFTVFDSLLRERKELDEIAPVPDAFVPIIKIKFSGISIDLICARLDQPQVPLSLTLSDKNLLRNLDEKDLRALNGTRVTDEILELVPKPNVFRIALRAIKLWAQRRAVYANIFGFPGGVAWAMLVARICQLYPNACSAVILNRFFIILSEWNWPQPVILKPIEDGPLQVRVWNPKIYAQDRSHRMPVITPAYPSMCATHNITESTKKVILQEFVRGVQITNDIFSNKKSWANLFEKNDFFFRYKFYLEITAYTRGSDEQHLKWSGLVESKVRLLVMKLEVLAGIKIAHPFTKPFESSYCCPTEDDYEMIQDKYGSHKTETALNALKLVTDENKEEESIKDAPKAYLSTMYIGLDFNIENKKEKVDIHIPCTEFVNLCRSFNEDYGDHKVFNLALRFVKGYDLPDEVFDENEKRPSKKSKRKNLLEHHHHHH | soluble
2 | MCKHCGAAVLFVKDDRWHVFDAKPSEEGEWRIRSRWAANVAAEKTTVTRLTESKLRRARLMGEPLFRPHFQTCPANPRAKILQEKRRHG | not soluble
3 | MLLKRRLFIAASLFAMHLSPALAADAVSFAPQPPAIDAGAWVLMDYTTGQVLTAGNEHQQRNPASLTKLMTGYVVDRAIDSHRISPDDIVTVGRDAWAKDNPVFVGSSLMFLKEGDRVSVRDLSRGLIVDSGNDACVALADYIAGGQPQFVAMMNSYVKKLNLQDTHFETVHGLDAPGQHSSAYDLAVLSRAIIHGEPEFYHMYSEKSLTWNGITQQNRNGLLWDKTMHIDGLKTGHTSGAGFNLIASAVDGQRRLIAVVMGAKSSKGREEQARKLLQWGQQNFATVQILHSGKKVGSERIWYGDKEKIALGTEQDFWMALPKAEIPHIKAKYVLDRKELEAPIAAHQQVGEIELYDRDKLIAQWPLVTLESVGKGGMFSRLSDYFQHKA | not soluble
4 | PSPGGQMHAGISSFQQSNSSGTYGPQMSQYGPQGNYSRPPAYSGVPSASYSGPGPGMGISANNQMHGQGPSQPCGAVPLGRMPSAGMQNRPFPGNMSSMTPSSPGMSQQGGPGMGPPMPTVNRKAQEAAAAVMQAAANSAQSRQGSFPGMNQSGLMASSSPYSQPMNNSSSLMNTQAPPYSMAPAMVNSSAASVGLADMMSPGESKLPLPLKADGKEEGTPQPESKSKDSYSSQGISQPPTPGNLPVPSPMSPSSASISSFHGDESDSISSPGWPKTPSSPKSSSSTTTGEKITKVYELGNEPERKLWVDRYLTFMEERGSPVSSLPAVGKKPLDLFRLYVCVKEIGGLAQVNKNKKWRELATNLNVGTSSSAASSLKKQYIQYLFAFECKIERGEEPPPEVFSTGDTKKQPKLQPPSPANSGSLQGPQTPQSTGSNSMAEVPGDLKPPTPASTPHGQMTPMQGGRSSTISVHDPFSDVSDSSFPKRNSMTPNAPYQQGMSMPDVMGRMPYEPNKDPFGGMRKVPGSSEPFMTQGQMPNSSMQDMYNQSPSGAMSNLGMGQRQQFPYGASYDRRHEPYGQQYPGQGPPSGQPPYGGHQPGLYPQQPNYKRHMDGMYGPPAKRHEGDMYNMQYSSQQQEMYNQYGGSYSGPDRRPIQGQYPYPYSRERMQGPGQIQTHGIPLQMMGGPLQSSSSEGPQQNMWAARNDMPYPYQNRQGPGGPTQAPPYPGMNRTDDMMVPDQRINHESQWPSHVSQRQPYMSSSASMQPITRPPQPSYQTPPSLPNHISRAPSPASFQRSLENRMSPSKSPFLPSMKMQKVMPTVPTSQVTGPPPQPPPIRREITFPPGSVEASQPVLKQRRKITSKDIVTPEAWRVMMSLKSGLLAESTWALDTINILLYDDSTVATFNLSQLSGFLELLVEYFRKCLIDIFGILMEYEVGDPSQKALDHNAARKDDSQSLADDSGKEEEDAECIDDDEEDEEDEEEDSEKTESDEKSSIALTAPDAAADPKEKPKQASKFDKLPIKIVKKNNLFVVDRSDKLGRVQEFNSGLLHWQLGGGDTTEHIQTHFESKMEIPPRRRPPPPLSSAGRKKEQEGKGDSEEQQEKSIIATIDDVLSARPGALPEDANPGPQTESSKFPFGIQQAKSHRNIKLLEDEPRSRDETPLCTIAHWQDSLAKRCICVSNIVRSLSFVPGNDAEMSKHPGLVLILGKLILLHHEHPERKRAPQTYEKEEDEDKGVACSKDEWWWDCLEVLRDNTLVTLANISGQLDLSAYTESICLPILDGLLHWMVCPSAEAQDPFPTVGPNSVLSPQRLVLETLCKLSIQDNNVDLILATPPFSRQEKFYATLVRYVGDRKNPVCREMSMALLSNLAQGDALAARAIAVQKGSIGNLISFLEDGVTMAQYQQSQHNLMHMQPPPLEPPSVDMMCRAAKALLAMARVDENRSEFLLHEGRLLDISISAVLNSLVASVICDVLFQIGQL | soluble
5 | MSEEDAEKLFLQEKPTRALLFIGSTGKTYASVISKEIDSTFAHTTRILSKMEQSGLIRFTFEGRIKFVELTKYGEEVEAALKDFRNIISEESPLRKEYLTAEEAGKVDKVRESEGKEYREHEEWEEENESEKDLDPLSAEILEKVRNLRNKIEGIYREAAETGQSKEMLSRKLGPNSRDIKKLYNQIENAETPVDETVVLALEETEGLLESYLKGSKPENV | not soluble
6 | MGSDKIHHHHHHMAAVALDQYLASVLKSSASDKNEIKLEAGNPDFDLFTIYLENHNTGIHRYRMDVSTILYVAKGTVTIKSAEKVINMRTGNVLLLTEGCKYEVSGQNDDTVLAKLKFAPGFEYRKYFNDFSYKGNRENKIIEQISDSLENEHVLWLKNNQITSASQVMQHIIGGYLDDELFAKALIQAELTAMLIISIRTQRMATPTNLDKTKFEKKSLDNYIDNHFADISLADAAKYFGFNPNYFSNMVKAKTGKSFVDHVGERRMQEARELLAQPDISLKEIISRVGYSSKSFFYKKFNQYYNMTPAAMRKELFRQANINLR | not soluble
7 | MSLHPVQHSAREQVNAQVLSAASQKIESLAQQRQWHDYRYTFKVYISSQIATAAPCATTPGVTLTSPVDIALNRMNFTVSCPQSWQMNVAVRPDVLVPVVMAKSLVARDTPLTANDVELKPYNVSAQRREVLMELDDAIGLSSKHALQPGKPITKEELVSPVLVGRDQPVMIVYQSAGITASMPGVALKNGRKGEMVKVRNASSQRVISAMVAESGVVTTVGAEEGHHHHHH | soluble
8 | MGSDKIHHHHHHMHLLFVTSIVPDGALASGYEIANAAIIAALRRAGARVTVIGFTWPGKVTADPENTVVLGEIDVRTESASALRKLAWVRKAMLSGLTFASVKLRAVSEHEVEAALEQAGPFDGYVLNSVQFAGAFEKLFEDKPSIFVAHNVEHLSARENEAAAGGVFQRLLFRREARLLKVVEERLCRRARFVFTLAEEDRAALGVASNDRSAVLPLVTGARAPVRNGPRRIDCDAALIGTWTWQPNRIGLDWFLGKVVPHLRPGFRIRIAGHMPSGVTSAHPGVEFVGRVADARAFVCGAAVIPLISTAGSGVQLKTIETFELGLPSVATSRSLRGIGHRPDNCVVTDDPAGFARALEAAAADIRDVDGGAFYRQQVKALDAAIRYGLSKLGAVRQEVLA | not soluble
9 | MGSDKIHHHHHHMTSTVFAQSDDFTTWTKFKVNYKIDPRFSLLSNLEFRTKDDVSRMDRLGLAIGGEYRAYSFLKLEAGYETHFRNLGDSEWKFRHRYNFGATASFQYQWLKIALRERFQQTFDRGDSKARLRSRLKLAYAPEKGIVSPYFSIEIYQSLDDAPFWRADRMRYRPGVEIALAKRWALDIFYCYQYESPKGKHIAGVEIGYSF | not soluble
10 | MSLQKKAMIIYNPAAGKNKFRKLLPDAEKILTEADFEVTLVPSTPAPKSTTFIAKQAAEAGFDVVIAAGGDGTVNEVVNGLMQVDTPPKLGVLPVGTTNDYARALNFAKNPLEALRIIAKQETIRVDIGKANETEFFINNAAGGKITEITYAVKESMKSKWGRLAYLFSGLTVLPKLSPVYVEIAYNDKIFKGEILLFFVNKSNSVGGMETLCPPAELNSGMFELLILKKVSPKTLFQLFASIKKGTHLSSPHVIHARTNKVTINSEADLNVSYDGVYGGKAPYTLEVIPEALEVFADTNRISSRLRGEGHHHHHH | soluble
11 | MAHHHHHHMELSKYAGLSSERLDCLRNLDIRKRSIYKGSTFSYGNNIYDILHNYSDKQKENKSDGVSVAHDYKDFQRNIKFAGLESEIKNDINIRNRRIKNDMNYRNDNLKDILQNNMNEQNINNSKYFLSDKGYVLTPKRCLARHVDDSEINKYFSTKYAVTDSSTGRTEIMVERKPGCSNIIVQNFSEFDAYGTYKKKDERINRRDSFVHTKMGIVPRDGSCIDNNKCKAQATFTHIHRRDNIAPDNYWLCPTIESDKKNKTKR | not soluble
12 | MSLFFRDVIGQEEAKYRLIQEVSEGRIPHAQLFCGPEGVGKFPLALAYARYLSCTNRSDTDACGVCPSCVKFNKLVHPDVHFVFPVVKNGRSDDYIVEWRKLVLNNPYFTINHWLNEINAENAQAVIYTKESDEIMKKLSLKSSEGGFKITLLWLPEKMQQACANKLLKLLEEPPEKTIFLLVSEAPDLILQTILSRTQRFNLRKIEEECMAEALQSKYGVQQATSISIAHLANGNFIKALETIHLNEEGHHHHHH | soluble
13 | GPGSMEEQDQRKPNGGNNGLPVPPSTTETGQGPLQDILGRTPNCQYVKKRLLGQGSFGSAWRVEESATGNVFAAKVMDLNNMSEKDRGFVTNEVKCLSRCCNPHVVRCENAIEREGQLLIVMEYADGGDLYKQIKARVREMKFFREHEVVFIFLQLCLALDHIHSNKMMHRDLKTANILLTTTGLVKLGDFGFSRQYEDSLSNAVGSTFCGTPYYLSPELWHRQPYSKKSEMWALGVVLYEVMALRRPFTGKNMDELITNICHGRCSDLPSSYSASLRDVCNRLLSVDPNTRPTIHELFHEPFIRSNLETLKRSVEKHNRIPADVREAIARCITQSLNTEEPPAHLEEPEPLIGTVKRHTALRGWQKCLLSFDEKQISIRDPSGVDPEEVVPVATLTSVCPIDVMMAGEEFVFAMKNQAGKAFWFMAPSQRAYEQWLTTLQEAAP | soluble
14 | MKRVLVAMSGGVDSSVAALLLKEAGYEVVGAMMRFWPDLPPPSLEAGKPRAWESCCTPDAAYEARRVADRLGIPFYLLDYREVFEEEIISPFLQDYAQGRTPNPCARCNTFVKFGALLKQARRLGLDYVATGHYVRKEGLALLRGLDPHKDQTYFLWGTPKEALPHLLFPVGGLTKPEVRALAEKAGLPTARRPESQNLCFVAGDLKGFLKERLKPRPGPLVDALTGEVVGEHEGASLYTLGQRKGLGLYKTHLERYVVGVDPERNVVYVGPKEACYFEGLEGEGLNLLAELPEEVEVQVRYRTPPVRAKVESLSPLRLRFAHPVFAVTPGQSAVFYRGERLLGGAVIRRGLYNLAGLEDPRALTFS | soluble
15 | MAHHHHHHMANNNMDDINLECENDNDNKISSEKRLVDEIIENNIEEIKKKEKDNKEKDNKEKDNKEKDIMFNIKNGLCDLEKTLDGEGYAYSNLTCRKKGIDFIPKSITRYIHLKYINLSHNNINDLVHLYFLPNIIFLDVSYNMLKEIVELKKEYLKNCIYINLSHNLISHMNNIFLKNLLEFNISYNTINNINIYISNTIRILNLSNNNIKNINFKNKLNNLLDLDISFNPIENLDFHTLMPNLVVLRINDNSTISMDKLNNLNNFKCLQSLFMQNYLYFKDISYKDVKEILLQNSKDIHLLKFNGNRLNKKTDHIEQADVNK | soluble
16 | MGSDKIHHHHHHMQNPAIGNVADTTASDFAELPATASHGPLRIEYRWVNAAAGNAPIAVFLHEGLGSVTMWRDWPQALCERLGMRGLVYSRPGYGLSTPRPHDVKWPADFMTAQARDILPALLDALCIDMRERRRMWVIGHSDGGSITLLYAALYPEELAGAVAIAPHVFVEDISVESIAQTRQLYETTDLRSKLGRYHADVDSAFYGWNDIWLNPAFRQWSIAGELTSIRKPLLAVQGHDDNYGTMAQIDTIAAHVPHAQLVKLDACGHSPHRDAPQPLNKAIAAFVLKDGVA | not soluble
